{"source": "patent US20230357810A1", "about": "“NEOPINONE ISOMERASE AND METHODS OF USING” (Antheia, Inc., priority 2017, published 2023)", "molecules": {"B1": {"name": "NISO: neopinone isomerase polypeptide of Papaver somniferum, SEQ.ID NO: 2; recombinant, His6-tagged, from E. coli (protein, listed as Papaver somniferum)", "chain": "MDSVSAALVFHSSIYLCAMAHHGVSGLVGKIVTELEVNCNADEFYKILKRDEDVPRAVSDLFPPVKIAKGDGLVSGCIKEWDCVLDGKAMSGKEETTHNDETRTLRHRELEGDLMKDYKKFDSIIEVNPKPNGHGSIVTWSIEYEKMNEDSPAPFAYLASFHQNVVEVDSHLCLSE", "modifications": "His6 tag", "notes": "recombinant, His6-tagged, from E. coli"}, "B2": {"name": "PR10-8: PR-polypeptide of Papaver somniferum similar to NISO, SEQ.ID NO: 38 (protein, listed as Papaver somniferum)", "chain": "MAHHGVSGLVGKLVTQLEVNCDADEFYKIWKHHEEVPKAVSHFFPAVKVVKGDGLVSGCIKEWHYILEGKAMSAMEETTHNDETRTLHHQVVEGEVMKDYKAIASIIQVNPNPNGHGSIVTWSIEYEKMNEDSPTPFAYLEFFHQNIIDMNSHLYVGSDSHLHVDE"}, "B3": {"name": "MorB: morphine reductase from Pseudomonas putida M10, SEQ.ID NO: 22, expressed in yeast (protein, listed as Papaver somniferum)", "chain": "MPDTSFSNPGLFTPLQLGSLSLPNRVIMAPLTRSRTPDSVPGRLQQIYYGQRASAGLIISEATNISPTARGYVYTPGIWTDAQEAGWKGVVEAVHAKGGRIALQLWHVGRVSHELVQPDGQQPVAPSALKAEGAECFVEFEDGTAGLHPTSTPRALETDEIPGIVEDYRQAAQRAKRAGFDMVEVHAANACLPNQFLATGTNRRTDQYGGSIENRARFPLEVVDAVAEVFGPERVGIRLTPFLELFGLTDDEPEAMAFYLAGELDRRGLAYLHFNEPDWIGGDITYPEGFREQMRQRFKGGLIYCGNYDAGRAQARLDDNTADAVAFGRPFIANPDLPERFRLGAALNEPDPSTFYGGAEVGYTDYPFLDNGHDRLG"}}, "key": {"[1]": {"test_system": "neopine formation in the presence of COR", "assay": "Neopine formation with PR10-8 mutant proteins, NISO or NISO mutants and COR (FIG. 13)", "assay_type": "biochemical", "description": "Neopine formation in the presence of the mutant proteins and COR was assessed, and compared to neopine formation using COR and NISOΔ1, NISOΔ2, and NISOΔ3. In the absence of NISO, neopine constitutes about 25% of the reaction product. Neopine formation can be reduced to 5% or less in the presence of NISO. Consistent with the previous experiment, in the presence of NISOΔ1, NISOΔ2, or NISOΔ3 an increase in neopine is observed, relative to wildtype NISO. […] Thus the relatively modest sequence differences between Domains Δl, Δ2, Δ3, Δ4 of NISO and PR10-8 nevertheless are significant with respect to the ability to suppress neopine production in the presence of COR."}, "[2]": {"test_system": "codeinone and morphinone substrates", "assay": "COR-B assay alone or together with NISO, substrate conversion and products formed (FIG. 16)", "assay_type": "biochemical", "details": "20 mins", "description": "Assay mixtures containing purified recombinant COR-B (~0.1 µg) alone, or purified recombinant COR-B (~0.1 µg) together with purified recombinant NISO (0.196 µg) (1:4 molar ratio), Na-ascorbate cofactor, and 1 mM NADPH, were incubated for 20 mins using one of the following substrates: codeine, neopine, morphine, neopmorphine, codeinone and morphinone. The percentages substrate conversion and products formed were determined."}, "[3]": {"test_system": "thebaine", "assay": "NISO-coupled T6ODM-COR-CODM assay with thebaine as substrate, LC-MS/MS", "assay_type": "biochemical", "details": "CODM plus NISO vs without NISO, 100 µM thebaine, 30° C., 1 hr"}, "[4]": {"test_system": "Yeast strains with chromosomally integrated T6ODM", "assay": "Hydrocodone production in yeast strains with chromosomally integrated T6ODM (FIG. 14)", "assay_type": "cell-based"}, "[5]": {"details": "COR-B and NISO together vs COR-B alone"}}}
{"molecule": "B1", "values": [{"measurement": "neopine formation (share of the reaction product)", "setting": "[1]; about 25% in the absence of NISO", "result": "≤ 5", "unit": "%"}, {"measurement": "product codeine formed from codeinone substrate", "setting": "[2]; [5]", "result": "substantial increase"}, {"measurement": "product morphine formed from morphinone substrate", "setting": "[2]; [5]", "result": "substantial increase"}, {"measurement": "codeinone substrate turnover increase", "setting": "[2]; COR-B plus NISO (1:4 molar ratio) vs COR-B alone", "result": "~2", "unit": "fold"}, {"measurement": "codeine production", "setting": "[3]", "result": "increases substantially"}, {"measurement": "morphine production", "setting": "[3]", "result": "increases"}, {"measurement": "neopine production", "setting": "[3]", "result": "reduced"}]}
{"molecule": "B2", "values": [{"measurement": "ability to reduce neopine production", "setting": "[1]", "result": "unable to reduce neopine production"}]}
{"molecule": "B3", "values": [{"measurement": "production of hydrocodone", "setting": "[4]", "result": "trace amounts"}]}
